Results on three molecules are retold here after patent US20090075374A1, “METHODS OF GENERATING EPITHELIAL LINEAGE CELLS FROM EMBRYOID BODIES AND PLURIPOTENT CELLS” (priority 2007, published 2009).

Type in all cases: cell-based, human
One data set has as its system undifferentiated hESCs. As to the kind of experiment: Concentration-dependent effect of RA: toxicity. Particulars: higher concentrations (e.g., 10 μM). How it is done: In some experiments, K14-positive cells were generated from EBs.
To study the concentration-dependent effect of RA, EBs were differentiated with varying RA concentrations for nine days and subsequently cultured on gelatin in DSFM for nineteen days. […] To study the temporal-dependent effect of RA, RA was added to the cultures at various stages of differentiation (e.g., either during EB induction or during adherent culture in DSFM). […] When exposed to RA, plated cells from control EBs were enriched in neural precursor populations, as confirmed by qPCR analysis.

Data set [1] concerns hESCs. As to the kind of experiment: Direct differentiation of hESCs to K14-positive cells. Particulars: for K14+ yield: subsequent culture in keratinocyte medium, RA+/− cultures. How it is done:
For immunohistochemistry, cells were fixed in 4% paraformaldehyde for 15 minutes at room temperature before blocking and permeabilizing with 5% milk in PBS with 0.4% Triton X-100.

Data set [2] concerns hESCs. In words: Direct differentiation of hESCs in N2 medium containing RA, BMP-4 or Noggin: epithelial and neuroectodermal transcripts. The following applies: six days, BMP-4 inhibition in RA-treated samples. How it is done: For semi-quantitative and quantitative PCR, RNA was harvested from cells using a RNeasy® Mini kit (Qiagen; Valencia, Calif.). cDNA was then generated using Omniscript® RT (Qiagen), 1 μg RNA and oligo-dT primers. For semi-quantitative analysis, PCR was conducted using Platinum® Taq (Invitrogen) with 1 μl cDNA for 30 or 35 cycles. For quantitative analysis, PCR was conducted using Quantitect® SYBR Green qPCR kit (Qiagen) with 1 μl cDNA on an iCycler (BioRad; Hercules, Calif.). Relative expression levels were calculated using the ΔCT method, normalizing to GAPDH transcription. Primers (Table 1) were designed to span intron or bound exon borders, and PCR products were verified by melt curve analysis and/or 2% agarose gel electrophoresis.
BMP-4 synergized with RA in direct differentiation of hESCs to K14^+ cells. hESCs were directly differentiated in N2 medium containing RA, BMP-4 or Noggin (a BMP inhibitor). After differentiation for six days, RNA was analyzed for expression of epithelial and neuroectodermal transcripts. ΔNp63 was elevated in all RA-treated cell samples, regardless of status of BMP signaling.

As for `CC1=C(/C=C/C(C)=C/C=C/C(C)=C/C(=O)O)C(C)(C)CCC1` [RA, tretinoin (all-trans RA), reference compound], the “toxicity to undifferentiated hESCs” value in the data set with undifferentiated hESCs is recorded as “appeared toxic”. Also, in the data set on hESCs [1] (after five weeks of differentiation, subculture in keratinocyte medium), the “cells expressing K14” value was 87%.

B1: Noggin: a BMP inhibitor (R&D Systems) (protein, UniProt Q13253 28-232, looked up)
Noggin: QHYLHIRPAPSDNLPLVDLIEHPDPIFDPKEKDLNETLLRSLLGGHYDPGFMATSPPEDRPGGGGGAAGGAEDLAELDQLLRQRPSGAMPSEIKGLEFSEGLAQGKKQRLSKKLRRKLQMWLWSQTFCPVLYAWNDLGSRFWPRYVKVGSCFSKRSCSVPEGMVCKPSKSVHLTVLRWRCQRRGGQRCGWIPIQYPIISECKCSC
With B1, in the data set with hESCs [1], the “K14+ yield” value is “decreased”. Further, the “effect on RA downregulation of neuroepithelial gene expression” value in the data set on hESCs [2] was “mitigated this effect”.

B2: BMP-4: bone morphogenetic protein-4 (R&D Systems), growth factor of the TGF-β superfamily (protein, UniProt P12644 293-408, looked up)
Bone morphogenetic protein 4: SPKHHSQRARKKNKNCRRHSLYVDFSDVGWNDWIVAPPGYQAFYCHGDCPFPLADHLNSTNHAIVQTLVNSVNSSIPKACCVPTELSAISMLYLDEYDKVVLKNYQEMVVEGCGCR
As for B2, the “K14+ yield” value in the data set with hESCs [1] is “only slightly affected”.
